Reference: patent US20160186238A1

Target: trypsin (bovine) (UniProt P00760)
Test: trypsin activity inhibition, fluorogenic substrate Z-Arg-AMC, fit of activity vs inhibitor concentration

Sequence of trypsin (bovine) (P00760 24-246): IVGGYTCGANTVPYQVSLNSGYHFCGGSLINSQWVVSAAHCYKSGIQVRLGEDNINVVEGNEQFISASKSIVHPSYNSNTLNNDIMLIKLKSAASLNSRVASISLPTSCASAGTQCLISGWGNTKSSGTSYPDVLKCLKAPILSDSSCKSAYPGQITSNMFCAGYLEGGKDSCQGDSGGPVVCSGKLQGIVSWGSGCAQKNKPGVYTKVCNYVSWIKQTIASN

Ki: 39.5 nM
Substance: antipain (peptide)
